Here are results for one molecule from PMC8263621, “A simple label-free electrochemical sensor for sensitive detection of alpha-fetoprotein based on specific aptamer immobilized platinum nanoparticles/carboxylated-graphene oxide”.

The data set deals with T1, alpha-fetoprotein (AFP) (UniProt P02771 19-609).
T1 sequence: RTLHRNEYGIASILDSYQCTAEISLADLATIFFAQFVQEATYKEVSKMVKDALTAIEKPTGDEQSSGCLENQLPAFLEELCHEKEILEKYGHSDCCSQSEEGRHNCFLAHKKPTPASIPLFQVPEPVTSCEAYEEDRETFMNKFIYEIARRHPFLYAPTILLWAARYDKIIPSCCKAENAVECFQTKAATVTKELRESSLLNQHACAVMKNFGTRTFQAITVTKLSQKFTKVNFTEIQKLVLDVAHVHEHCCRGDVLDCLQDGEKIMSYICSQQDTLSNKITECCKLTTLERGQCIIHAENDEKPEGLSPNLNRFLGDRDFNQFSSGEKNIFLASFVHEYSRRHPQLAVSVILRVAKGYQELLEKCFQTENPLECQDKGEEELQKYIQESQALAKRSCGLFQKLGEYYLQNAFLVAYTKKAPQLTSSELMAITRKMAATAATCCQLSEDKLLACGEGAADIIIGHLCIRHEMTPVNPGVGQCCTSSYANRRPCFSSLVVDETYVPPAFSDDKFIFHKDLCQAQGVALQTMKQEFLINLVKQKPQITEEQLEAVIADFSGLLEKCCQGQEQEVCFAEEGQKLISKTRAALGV
As to the kind of experiment: electrochemical aptasensor (CV/SWV); aptamer immobilized on PtNPs/GO-COOH/SPGE; 3 mM hydroquinone probe; LOD 1.22 ng/mL, linear 3-30 ng/mL (not a Kd); 10 mM PBS pH 7.4, 3 mM hydroquinone for readout; BSA-blocked electrode (0.25% w/v); AFP incubation 45 min at room temperature. The note with it: protein: commercial.

B1: AFP aptamer (ssDNA)
DNA: GTGACGCTCCTAACGCTGACTCAGGTGCAGTTCTCGACTCGGTCTTGATGTGGGTCCTGTCCGTCCGAACCAATC
modifications: 5'-NH2
For B1, the binding result is given as “binds”.
